Patent publication US7094554

Tests used:
[1] = biological target: P. gossypiella (pink bollworm) midgut brush border membrane vesicle (BBMV) proteins (Pectinophora gossypiella); assay: competition with 125I-Cry1Ac on BBMV, 1000 nM unlabeled toxin
[2] = biological target: P. gossypiella (pink bollworm) midgut brush border membrane vesicle (BBMV) proteins (Pectinophora gossypiella); assay: homologous competition assay, 125I-toxin on BBMV
[3] = biological target: P. gossypiella (pink bollworm) midgut brush border membrane vesicle (BBMV) proteins (Pectinophora gossypiella); assay: saturation binding, fixed 125I-toxin with increasing BBMV
[4] = biological target: P. gossypiella (pink bollworm) midgut brush border membrane vesicle (BBMV) proteins (Pectinophora gossypiella); assay: competition with 125I-Cry1Ac on BBMV
[5] = biological target: P. gossypiella (pink bollworm) midgut brush border membrane vesicle (BBMV) proteins (Pectinophora gossypiella); assay: homologous competition, 125I-Cry1Aa against unlabeled Cry1Aa on BBMV
[6] = biological target: P. gossypiella (pink bollworm) midgut brush border membrane vesicle (BBMV) proteins (Pectinophora gossypiella); assay: homologous competition, 125I-Cry1Ab against unlabeled Cry1Ab on BBMV
[7] = biological target: P. gossypiella (pink bollworm) midgut brush border membrane vesicle (BBMV) proteins (Pectinophora gossypiella); assay: homologous competition, 125I-Cry1Ac against unlabeled Cry1Ac on BBMV

| Substance | percent reduction of 125I-Cry1Ac binding at 1000 nM [1] | Kd [2] | concentration of binding sites (Bmax) [2] | maximum saturable binding at 400 µg/ml of BBMV [3] | IC50 [4] | IC50 [5] | IC50 [6] | IC50 [7] | fold difference in binding compared to Cry1Ab [3] | fold higher binding compared to Cry1Aa [3] |
| --- | --- | --- | --- | --- | --- | --- | --- | --- | --- | --- |
| Cry1Aa toxin (trypsinized 60 kD toxin) (from UniProt P0A366 29-619) (ligand) | 80% | 16.5 nM | 3.7 pmol/mg | 0.35 ng | 100 nM | 10 nM |  |  |  |  |
| Cry1Ab toxin (trypsinized 60 kD toxin) (from UniProt P0A370 29-620) (ligand) | 82% | 12.4 nM | 3.6 pmol/mg | 0.05 ng | 100 nM |  | 10 nM |  |  |  |
| Cry1Ac toxin (trypsinized 60 kD toxin) (from UniProt P05068 29-623) (ligand) | 95% | 12.8 nM | 8.6 pmol/mg | 1.5 ng | 10 nM |  |  | 10 nM | 30 fold | 4 fold |
